Substitutions are numbered along the chain they refer to. Numbers in names are those of the source.
B1: F290V: single mutant F290V of N. polysaccharea amylosucrase (protein)
chain: SPNSQYLKTRILDIYTPEQRAGIEKSEDWRQFSRRMDTHFPKLMNELDSVYGNNEALLPMLEMLLAQAWQSYSQRNSSLKDIDIARENNPDWILSNKQVGGVCYVDLFAGDLKGLKDKIPYFQELGLTYLHLMPLFKCPEGKSDGGYAVSSYRDVNPALGTIGDLREVIAALHEAGISAVVDFIFNHTSNEHEWAQRCAAGDPLFDNFYYIFPDRRMPDQYDRTLREIFPDQHPGGFSQLEDGRWVWTTFNSFQWDLNYSNPWVFRAMAGEMLFLANLGVDILRMDAVAVIWKQMGTSCENLPQAHALIRAFNAVMRIAAPAVFFKSEAIVHPDQVVQYIGQDECQIGYNPLQMALLWNTLATREVNLLHQALTYRHNLPEHTAWVNYVRSHDDIGWTFADEDAAYLGISGYDHRQFLNRFFVNRFDGSFARGVPFQYNPSTGDCRVSGTAAALVGLAQDDPHAVDRIKLLYSIALSTGGLPLIYLGDEVGTLNDDDWSQDSNKSDDSRWAHRPRYNEALYAQRNDPSTAAGQIYQDLRHMIAVRQSNPRFDGGRLVTFNTNNKHIIGYIRNNALLAFGNFSEYPQTVTAHTLQAMPFKAHDLIGGKTVSLNQDLTLQPYQVMWLEIA
B2: F229V: single mutant F229V of N. polysaccharea amylosucrase (protein)
chain: B1 chain with F229V, V290F
B3: I228K-F290W: double mutant I228K, F290W of N. polysaccharea amylosucrase (protein)
chain: B1 chain with I228K, V290W
B4: I228K-F290L: double mutant I228K, F290L of N. polysaccharea amylosucrase (protein)
chain: B1 chain with I228K, V290L
B5: A289T-F290H: double mutant A289T, F290H of N. polysaccharea amylosucrase (protein)
chain: B1 chain with A289T, V290H
B6: F290R: single mutant F290R of N. polysaccharea amylosucrase (protein)
chain: B1 chain with V290R
B7: F229M: single mutant F229M of N. polysaccharea amylosucrase (protein)
chain: B1 chain with F229M, V290F
B8: A289H-F290S: double mutant A289H, F290S of N. polysaccharea amylosucrase (protein)
chain: B1 chain with A289H, V290S
B9: F290H: single mutant F290H of N. polysaccharea amylosucrase (protein)
chain: B1 chain with V290H
B10: F290G: single mutant F290G of N. polysaccharea amylosucrase (protein)
chain: B1 chain with V290G
B11: I228A-F290H: double mutant I228A, F290H of N. polysaccharea amylosucrase (protein)
chain: B1 chain with I228A, V290H
B12: I228V-F290H: double mutant I228V, F290H of N. polysaccharea amylosucrase (protein)
chain: B1 chain with I228V, V290H
B13: I228V-F290K: double mutant I228V, F290K of N. polysaccharea amylosucrase (protein)
chain: B1 chain with I228V, V290K
B14: I228T-F290H: double mutant I228T, F290H of N. polysaccharea amylosucrase (protein)
chain: B1 chain with I228T, V290H
B15: I228V-F229L: double mutant I228V, F229L of N. polysaccharea amylosucrase (protein)
chain: B1 chain with I228V, F229L, V290F
B16: I228C-F229L: double mutant I228C, F229L of N. polysaccharea amylosucrase (protein)
chain: B1 chain with I228C, F229L, V290F
B17: I228L-F229L: double mutant I228L, F229L of N. polysaccharea amylosucrase (protein)
chain: B1 chain with I228L, F229L, V290F
B18: F229L: single mutant F229L of N. polysaccharea amylosucrase (protein)
chain: B1 chain with F229L, V290F
B19: I228T-F290K: double mutant I228T, F290K of N. polysaccharea amylosucrase (protein)
chain: B1 chain with I228T, V290K
B20: I228V-F229M: double mutant I228V, F229M of N. polysaccharea amylosucrase (protein)
chain: B1 chain with I228V, F229M, V290F
B21: I228M-F229M: double mutant I228M, F229M of N. polysaccharea amylosucrase (protein)
chain: B1 chain with I228M, F229M, V290F
B22: I228V-F290V: double mutant I228V, F290V of N. polysaccharea amylosucrase (protein)
chain: B1 chain with I228V
B23: F290L: single mutant F290L of N. polysaccharea amylosucrase (protein)
chain: B1 chain with V290L

test: HPLC screening of double-mutant libraries for variants able to glucosylate D-GlcpNAc; type: biochemical; details: α-D-Glcp-(1→4)-α-D-GlcpNAc (ED) from sucrose and D-GlcpNAc, microplate format
Protocol: The protocol was established to enable the rapid identification of clones for which D-GlcpNAc glucosylation was improved. To obtain higher amounts of enzymes and facilitate detection of glucosylated compounds upon HPLC screening, mutants were produced in 96-DeepWell Format plates. Storage microplates containing monomutants were thawed and replicated to inoculate a starter culture in 96-well microplates containing, in each well, 150 μL LB medium supplemented with ampicillin (100 μg/mL). After growth for 24 h at 30° C. under agitation (200 rpm), plates were duplicated into 96-Deep Well plates containing, in each well, 1.1 mL LB medium supplemented with ampicillin (100 μg/mL) and IPTG (1 mM) to induce GST-AS expression. Cultures were then grown for 24 h at 30° C. under agitation (200 rpm). Plates were centrifuged (20 min, 3000 g, 4° C.) and the supernatant was removed. The cell pellet was resuspended in 200 μL of lysozyme (0.5 mg/mL), followed by freezing at −80° C. for 8 to 12 h. After thawing at room temperature, 100 μL of sucrose and 100 μL of acceptor (each at a final concentration of 73 mM) were added to each well. Enzymatic reaction was incubated at 30° C. during 24 h under agitation. The DeepWell plates were then centrifuged (20 min, 3000 g, 4° C.) and 300 μL of the supernatant was transferred to a filter micro-plate (PVDF 0.2 μm) to be clarified. Supernatant filtration was carried out by centrifugation of the filter micro-plate (5 min, 2000 g, 4° C.) into a novel microplate for screening.
The method for the expression of the mutant libraries is described in Example 1-1.
Acceptor reaction products were analyzed by HPLC analysis using a C18-AQ column (Bischoff C18, 125×4 mm, 3 μm) kept at room temperature and eluted with 0.6 mL/min of ultra-pure water to detect α-D-Glcp-(1→4)-α-D-GlcpNAc formation (analysis time: 7 min). To evaluate the efficiency of the glucosylation reaction, it was carried out complementary HPLC analyses with a Biorad HPX-87K Carbohydrate Analysis column (maintained at 65° C., and eluted at a flow rate of 0.6 mL/min with ultra-pure water). By this way, it was possible to measure sucrose consumption by RI detection and concomitant α-D-Glcp-(1-4)-α-D-GlcpNAc formation by UV220 nm and determine mutant ability to synthesize the desired disaccharide α-D-Glcp-(1→4)-α-D-GlcpNAc (i.e., % Glucosyl units transferred onto acceptor derivatives=[Glucosyl units transferred onto acceptor derivatives]/[Glucosyl units transferred from initial sucrose]×100)
All clones producing sucrose-utilizing variants were then picked and cultured in 96-well microplates. Following cell lysis, the acceptor reaction in the presence of D-GlcpNAc was then carried out in microplate format. HLPC analysis time for each clone was reduced to 7 min for detection of α-D-Glcp-(1→4)-α-D-GlcpNAc. When disaccharide formation was detected, complementary analyses were performed to determine sucrose consumption and disaccharide formation with more accuracy in order to calculate the glucosylation yield.

| Molecule | Glusosylation Yield to synthesize ED |
| --- | --- |
| B1 | 100% |
| B2 | 88% |
| B3 | 50% |
| B4 | 47% |
| B5 | 40% |
| B6 | 100% |
| B7 | 79% |
| B8 | 40% |
| B9 | 46% |
| B10 | 53% |
| B11 | 88% |
| B12 | 61% |
| B13 | 89% |
| B14 | 56% |
| B15 | 56% |
| B16 | 78% |
| B17 | 35% |
| B18 | 49% |
| B19 | 72% |
| B20 | 29% |
| B21 | 28% |

same assay, conditions: α-D-Glcp-(1→4)-α-D-GlcpNAc (ED) from sucrose and D-GlcpNAc, microplate format, listed as DM4_P1_G7

| Molecule | Glusosylation Yield to synthesize ED |
| --- | --- |
| B22 | 90% |

same assay, conditions: α-D-Glcp-(1→4)-α-D-GlcpNAc (ED) from sucrose and D-GlcpNAc, microplate format, listed as DM4_P2_A2

| Molecule | Glusosylation Yield to synthesize ED |
| --- | --- |
| B23 | 55% |

same assay, conditions: α-D-Glcp-(1→4)-α-D-GlcpNAc (ED) from sucrose and D-GlcpNAc, microplate format, listed as DM4_P2_B10

| Molecule | Glusosylation Yield to synthesize ED |
| --- | --- |
| B22 | 47% |

same assay, conditions: α-D-Glcp-(1→4)-α-D-GlcpNAc (ED) from sucrose and D-GlcpNAc, microplate format, listed as DM4_P2_G9

| Molecule | Glusosylation Yield to synthesize ED |
| --- | --- |
| B23 | 20% |

From patent publication US20110086767A1, “MUTANTS OF GLYCOSIDE HYDROLASES AND USES THEREOF FOR SYNTHESIZING COMPLEX OLIGOSACCHARIDES AND DISACCHARIDE INTERMEDIATES” (Institut Pasteur, priority 2008, published 2011)
